Patent US20200399392A1, “INHIBITORS OF PLA2-G1B COFACTORS FOR TREATING CANCER” (priority 2018, published 2020)

Columns and labels:
gC1qR = biological target: T1, gC1qR (Homo sapiens, UniProt Q07021); test: gC1qR-peptides binding assay (ELISA on microplates); conditions: peptide coated, His-tag-gC1qR 0 to 3 μg/well, FIG. 12
T1 sequence (Q07021 74-282): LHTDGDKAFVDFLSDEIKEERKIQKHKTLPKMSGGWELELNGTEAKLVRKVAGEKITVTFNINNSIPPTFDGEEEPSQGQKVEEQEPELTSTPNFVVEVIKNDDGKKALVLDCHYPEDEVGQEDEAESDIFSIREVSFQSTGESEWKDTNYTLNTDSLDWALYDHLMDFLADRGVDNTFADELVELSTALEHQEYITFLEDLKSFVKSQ
Protocol: The unbound protein was removed; the wells washed 2× with TBST (20 mM Tris-HCl pH 7.5, 150 mM NaCl, and 0.05% Tween-20) and the unreacted sites blocked by incubation (30 min, room temp) with 300 μl of 3% BSA in TBST. After washing (2× with TBST), the microtiter plate bound peptides was incubated (2 h, room temp.) with different amount of His-tag-gC1qR ranging from 0 to 3 μg/well in triplicate. After washing (5 times with TBST), 100 μl of anti-His tag-HRP antibody (1:1000; 71840-3, Merck) in 3% BSA in TBST was added per well and incubated for 2 h at room temperature. Microplates wells were then washed (5 times with TBST) and 100 μl of TMB ELISA substrate standard solution (UP664781, Interchim) was added per well. Reaction was stopped with 100 μl per well of a H2SO4 solution at 0.16M and OD at 450 nm was measured on a microplate reader (Tecan Infinite M1000 Pro).
A scrambled peptide or a control peptide were used as control.

[1] = tested on: gC1qR KO Jurkat E6.1 T cells; test: PLA2-GIB enzymatic assay on [3H] arachidonic acid labelled gC1qR KO Jurkat E6.1 T cells; type: cell-based, human; conditions: gC1qR KO cells (1D5 or 2G9), pretreatment 21 h, FIG. 13
Excerpt: Generation of gC1qR KO Jurkat E6.1 T cells—The global strategy for the development of Jurkat cells deprived of C1QBP is based on the design of a targeting vector permitting bi-allelic inactivation of C1QBP gene via homologous recombination. Human C1QBP homologous regions isogenic with the Jurkat E6.1 T cell line (ECACC 88042803) has been used. The targeting vector has been synthetized by Genewiz and cloned into the pUC57-Amp vector. […] The NeoR cassette was cloned using BamHI/NotI restriction sites. The targeting vector has been verified by DNA restriction digestion cut with selected restriction enzymes (APaL1, Drd1, Pvu1, Pvu2, BamH1/NotI, Not1/NcoI, NEB) and target region sequencing. The DNA primers corresponding to C1QBP sgRNA (1828-Crispr_1A: CACC-[…] and 1828-Crispr_1B: AAAC-[…]) were hybridized and cloned (Quick Ligase-New England Biolabs, NEB) into the pX330 plasmid (Addgene, 42230; Feng Zhang, MIT) using BbsI restriction site (NEB).
The Jurkat cells (5×10^6) were resuspended in 100 μL of Opti-MEM and 7 μg of CRISPR/Cas9 plasmid and 2.5 μg of targeting vector were added. The cells were electroporated with a Nepa21 electroporator. After cell selection in G418 selective medium, the Jurkat cell clones were prescreened by PCR genotyping. Independent cell clones knocked-out for C1QBP gene were amplified and verified by PCR genotyping and target region sequencing. […]

Q: With “NH2-PWNASWSNKSLDDIW—COOH (H-PWNASWSNKSLDDIW-OH) [PEP3]” as the substance, how does the “binding to gC1qR” value (gC1qR) read?
A: binds

Q: What about the “PLA2-GIB activity vs scrambled PEP3” value [1] of the same substance?
A: not
